Test results reported in patent publication US20040248198A1 (ST JUDE CHILDREN S RESEARCH HOSPITAL, published 2004).
Where no end group is shown, it is not given here.

B1: 41-55 (peptide)
peptide: AFVNMLLRLERILRR
modifications: not fully specified
notes: also called mouse p19Arf library peptide, residues 41-55
B2: 11-25 (peptide)
peptide: IQRAGRPLQERVFLV
modifications: not fully specified
notes: also called mouse p19Arf library peptide, residues 11-25
B3: A1 peptide (human p14ARF 1-14, SEQ ID NO:26, MVRRFLVTLRIRRA) (peptide)
peptide: Ac-MVRRFLVTLRIRRA-NH2
notes: Synthetic peptide; also called human A1 (1-14)
B4: H1 peptide (Hdm2 240-254, SEQ ID NO:27, SVSDQFSVEFEVESL) (peptide)
peptide: Ac-SVSDQFSVEFEVESL-NH2
notes: Synthetic peptide

Experiments:
His-tagged Hdm2 210-304 = target: T1, His-tagged Hdm2 210-304 (human, UniProt Q00987 210-304); test: SPR (Biacore), His-tagged Hdm2 210-304 captured by anti-His antibody, mouse Arf peptide as analyte, reference cell subtracted
T1 construct: not shown: thrombin-cleavable poly-His tag from pET28a
T1 sequence (Q00987 210-304): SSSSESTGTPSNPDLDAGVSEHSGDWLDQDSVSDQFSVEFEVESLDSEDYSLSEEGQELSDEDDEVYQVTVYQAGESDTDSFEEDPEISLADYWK
Description: Surface Plasmon Resonance. Binding studies were performed using a Biacore 3000 surface plasmon resonance (SPR) instrument (Biacore, Inc.). A Tetra-His™ Antibody (Qiagen, Inc.; Cat. #34670) was covalently attached to a carboxymethylated gold surface (C-1 chip; Biacore, Inc.). The carboxymethyl groups on the surface were activated with N-ethyl-N-(3-dimethylaminopropyl) carbodiimide (EDC) and N-hydroxysuccinimide (NHS) and the antibody was attached at pH 7.4 in 20 mM sodium phosphate buffer, 150 mM NaCl (PBS). Reactive sites remaining on the surface were blocked by reaction with ethanolamine. The His-tagged ligand was attached to the antibody by injecting a […] solution of the ligand in 10 mM HEPES, 150 mM NaCl, pH 7.4 (HBS-N buffer, Biacore) at a flow rate of 10 μL/Min through the flow cell. A reference cell was prepared similarly except that no His-tagged ligand was added. Binding was measured by flowing the non-His-tagged analyte through the reference and ligand-containing flow cells in sequence. Prior to injection of ligands, the chip surfaces were equilibrated in HBS-N buffer. Changes in the SPR response due to solvent differences and the injection process were monitored by injection of HBS-N buffer alone. Regeneration of the chip surface to remove bound analyte and ligand was accomplished by two 100 μL injections of 10 mM glycine, pH 2.0 through both flow cells. Data reported is-the difference in SPR signal between the flow cell containing analyte and the reference cell. Duplicate injections were made and the SPR response values reported are the average of these two injections.
Two libraries of peptides 15 amino acids in length were synthesized based on the sequence of exon 1β of mouse p19^Arf and the entire sequence of human p14^Arf. The sequence for the first peptide in each library corresponded to the first 15 amino acids of the protein sequences. […] This approach yielded two libraries of overlapping peptides spanning mouse p19^Arf residues 1-64 and human p14^Arf residues 1-132. The ability of these peptides to bind Hdm2 fragments was determined using the surface plasmon resonance (SPR) technique with a Biacore 3000 instrument.

[1] = target: B4; test: CD and 1H NMR titration
Description: (§1) CD spectra were recorded with an Aviv 62DS instrument in 5 mM potassium phosphate (pH 7.0) using a 1 mm cuvette. In FIG. 1A, A1 was 4.5 μM, molar ratios were: 1:0.0, 1:0.1, 1:0.6, 1:0.9, & 1:1.3. In FIG. 1B, H1 was 2.5 μM, molar ratios were: 1:0.2, 1:0.7, 1:1.0, & 1:1.3. Data was collected for 3 seconds in 1 nm steps and 10 scans were averaged for each spectrum. The appearance of a minimum in the CD spectra of the assemblies near […] and the increase in ellipticity near 200 nm is consistent with the formation of β-strand-containing structures.
(§2) An end point was reached when the molar ratio of A1:H1 was 1:1. For example, further additions of the H1 peptide led to the appearance of disordered spectral features consistent with unbound, free H1 peptide (inset, FIG. 6a). The Fourier transform infrared (FT-IR) spectrum of the co-assemblies confirms the CD results and allows the β-structures to be classified as anti-parallel β-strands on the basis of the absorbances at 1618 cm-1 and 1679 cm-1 (FIG. 7) [Casal, H. L.; Kohler, U.; Mantsch, H. H., Biochim Biophys Acta 957:11-20 (1988)]. In summary, the individually disordered A1 and H1 peptides self-assemble into supramolecular structures comprised of anti-parallel β-strands.

[2] = target: B3; test: CD titration, H1 peptide added stepwise to A1 peptide
Description: as §1, §2

| binding result (His-tagged Hdm2 210-304) | Binder | also measured |
| --- | --- | --- |
| no binding (tested: not given) | B1 |  |
| no binding (tested: not given) | B2 |  |
|  | B3 | molar ratio A1:H1 at the end point of the titration [1]: 1 mol A1 per mol H1 |
|  | B4 | binding result [2]: binds |
